In publication PMC4227774, “RppH-dependent pyrophosphohydrolysis of mRNAs is regulated by direct interaction with DapF in Escherichia coli” (Nucleic Acids Research, 2014):
Numbering of substitutions follows the chain as printed.

B1: DapF co-expressed with His-RppH from pDuet-RD (enzyme, E. coli, UniProt P0A6K1 1-274, looked up)
chain: MQFSKMHGLGNDFMVVDAVTQNVFFSPELIRRLADRHLGVGFDQLLVVEPPYDPELDFHYRIFNADGSEVAQCGNGARCFARFVRLKGLTNKRDIRVSTANGRMVLTVTDDDLVRVNMGEPNFEPSAVPFRANKAEKTYIMRAAEQTILCGVVSMGNPHCVIQVDDVDTAAVETLGPVLESHERFPERANIGFMQVVKREHIRLRVYERGAGETQACGSGACAAVAVGIQQGLLAEEVRVELPGGRLDIAWKGPGHPLYMTGPAVHVYDGFIHL
notes: DapF, diaminopimelate epimerase, E. coli; source: E. coli ER2566 harboring pDuet-RD (from the pET-duet vector), in crude extract
B2: DapF, diaminopimelate (DAP) epimerase, purified (enzyme, E. coli, UniProt P0A6K1 1-274, looked up)
chain: B1 chain
notes: DapF, diaminopimelate epimerase, E. coli; The text sets 'purified DapF' (untagged) against His-DapF in the pull-downs; also called purified DapF; untagged DapF; source: purified
B3: RppH, RNA pyrophosphohydrolase, purified (enzyme, E. coli, UniProt P0A776 1-176, looked up)
chain: MIDDDGYRPNVGIVICNRQGQVMWARRFGQHSWQFPQGGINPGESAEQAMYRELFEEVGLSRKDVRILASTRNWLRYKLPKRLVRWDTKPVCIGQKQKWFLLQLVSGDAEINMQTSSTPEFDGWRWVSYWYPVRQVVSFKRDVYRRVMKEFASVVMSLQENTPKPQNASAYRRKRG
notes: RppH (NudH), RNA pyrophosphohydrolase, E. coli; Named only 'RppH' in gel filtration, SPR and the activity assays; The methods describe only the purification of His-RppH, so this may be the same protein as m1; also called purified RppH; NudH; source: purified

Columns and labels:
[1] = molecular target: T1, His-RppH co-expressed with DapF from pDuet-RD (E. coli, UniProt P0A776 1-176); assay: pull-down; DapF and His-RppH co-expressed from pDuet-RD in E. coli ER2566; crude extract loaded onto a TALON metal affinity column; SDS-PAGE; settings: partners not purified
T1 construct: RppH (NudH), RNA pyrophosphohydrolase, E. coli; source: E. coli ER2566 harboring pDuet-RD (from the pET-duet vector), in crude extract
T1 sequence (looked up): B3 chain

[2] = molecular target: the molecule itself; assay: SEC; Superose 12 10/300 GL, 50 mM Tris-HCl pH 8.0, 100 mM NaCl, room temperature, 0.5 ml/min; 50 μg RppH, 400 μg DapF (or 100 μg DapF(C73&217A)) or both in 250 μl, incubated 10 min on ice; fractions on SDS-PAGE
[3] = molecular target: B3; assay: as above; settings: both partners purified
[4] = molecular target: T2, His6-RppH (6His-tagged form of RppH, RNA pyrophosphohydrolase) (E. coli, UniProt P0A776 1-176); assay: pull-down; purified DapF mixed with varying amounts of His-RppH or the control protein His-enzyme IIA^Ntr on the metal affinity resin; band intensities on gel; settings: both partners purified
T2 construct: RppH (NudH), RNA pyrophosphohydrolase, E. coli; rppH gene amplified from MG1655 genomic DNA with primers at the ATG start codon and 20 bp downstream of the TAA stop codon; also called His-RppH; His-tagged RppH
T2 sequence (looked up): B3 chain

[5] = molecular target: B2; assay: SPR; BIAcore 3000; RppH amine-coupled to a CM5 chip (0.7 ng/mm^2); DapF at 20, 50 and 70 μg/ml flowed at 10 μl/min; 10 mM HEPES pH 7.2, 150 mM NaCl, 10 mM KCl, 1 mM MgCl2, 0.5 mM EDTA; fit assumes a dimer–dimer interaction; settings: both partners purified
DapF(C73&217A) = molecular target: T3, DapF(C73&217A) (E. coli, UniProt P0A6K1 1-274, C73&217A | C73&217A); assay: SEC; Superose 12 10/300 GL, 50 mM Tris-HCl pH 8.0, 100 mM NaCl, room temperature, 0.5 ml/min; 50 μg RppH, 400 μg DapF (or 100 μg DapF(C73&217A)) or both in 250 μl, incubated 10 min on ice; fractions on SDS-PAGE; settings: both partners purified
T3 construct: DapF, diaminopimelate epimerase, E. coli; the two catalytic cysteines C73 and C217 substituted to alanine; The methods list His-DapF(C73&217A) among the purified proteins; results and legends call it DapF(C73&217A); also called His-DapF(C73&217A); mutant DapF
T3 sequence (looked up): B1 chain with C73A, C217A

## B1
[1]
  stoichiometry N: 1 DapF:RppH

## B2
[2]
  stoichiometry N: 2
[3]
  stoichiometry N: 1 DapF:RppH (2:2)
[4]
  stoichiometry N: 1 DapF:RppH

## B3
[5]
  Kd: ~5.2 nM
DapF(C73&217A)
  binding result: binds
